Reference: patent publication US20220275043A1

Experiments:
[1] = target: single-chain SIINFEKL-H2Kb expressed on K562 cells (mouse); test: flow cytometry dot plot (APC-A against Pacific Blue-A) of K562 cells expressing single-chain SIINFEKL-H2Kb, stained with raw supernatant; number printed in the gate 'TCR-Igg pos stain' (same gate in the Negative ctl panel: 1.15)
[2] = target: single-chain SIINFEKL-H2Kb expressed on K562 cells (mouse); test: flow cytometry, purified OT1-TCR-Igg at 20 nM on K562 cells expressing single-chain SIINFEKL-H2Kb

## OT1-TCR-Igg (OTI TCRα-LZL-mIgG HC + OTI TCRβ-LZR-mIgG LC, two separate plasmids)
[1]
  TCR-Igg pos stain: 39.3
[2]
  percent of cells stained at 20 nM: 100%
